Data on two molecules can be found in publication PMC6181577 (Molecular cell, 2018).

In one data set the target is Ubiquitin (WT) (UniProt P0CG48 1-76). In words: NMR titration.
The data set “SEC” concerns the molecule itself. In words: SEC. On the technique in general: In gel filtration, larger molecules generally elute earlier.

B1: UBQLN2 450–624 (domain or fragment, human)
chain: RAMQALMQIQQGLQTLATEAPGLIPSFTPGVGVGVLGTAIGPVGPVTPIGPIGPIVPFTPIGPIGPIGPTGPAAPPGSTGSGGPTGPTVSSAAPSETTSPTSESGPNQQFIQQMVQALAGANAPQLPNPEVRFQQQLEQLNAMGFLNREANLQALIATGGDINAAIERLLGSQPSW
Consider B1, for which, in the data set with Ubiquitin (WT), the Kd turned out to be 3000 nM. The binding result in the data set “SEC” is “binds”.

B2: UBQLN2 379–624 (domain or fragment, human)
chain: NPQLIQNMLSAPYMRSMMQSLSQNPDLAAQMMLNSPLFTANPQLQEQMRPQLPAFLQQMQNPDTLSAMSNPRAMQALMQIQQGLQTLATEAPGLIPSFTPGVGVGVLGTAIGPVGPVTPIGPIGPIVPFTPIGPIGPIGPTGPAAPPGSTGSGGPTGPTVSSAAPSETTSPTSESGPNQQFIQQMVQALAGANAPQLPNPEVRFQQQLEQLNAMGFLNREANLQALIATGGDINAAIERLLGSQPSW
For B2, the binding result in “SEC” is on record as “binds”.

By Kd is commonly meant the free concentration of one partner at which half of the binding sites on the other are occupied at equilibrium, for simple one-to-one binding. Low readings indicate tighter binding, high ones weaker binding.
